The experiment deals with integrin (of mouse fibroblasts, members not named for this experiment). The note with it: scale: fold relative to the unmodified substrate.

Non-standard residues stand in square brackets, D forms with d. Groups on a side chain read outwards from the residue. No end group written: not given here. Phe(4-N3) = [N-]=[N+]=Nc1ccc(C[C@H](N)C(=O)O)cc1; ssDNA = not defined here

The source of these data is PMC5508132.

[Phe(4-N3)]([DIBAC-ssDNA])GGRGDS-NH2 (reading uncertain; also: printed as F^az^GGRGDS) [RGDS P-DNA (F^azGGRGDS peptide conjugated to ssDNA)]: the area of fibroblasts on RGDS surfaces after 24 h, relative to the unmodified substrate was determined as 6.
